The target in assay [1] is ΔLTRIN, truncated C-terminal LTRIN (lymphotoxin β receptor inhibitor), residues 86-210 (Aedes aegypti). The experiment in a line: AUC; sedimentation velocity, 0.5 mg/mL, 25 mM Tris HCl, 50 mM NaCl pH 7.5, 40,000 rpm, 20 °C, continuous c(s) distribution.
The target is the same in assay [2]. In words: dynamic and static light scattering; DynaPro Nanostar; ΔLTRIN at 1 mg/mL to 20 mg/mL; also with Ca2+ or EGTA without effect.
The target is the same in assay [3]. The experiment in a line: SEC; Superdex 75 after Ni-NTA and ion exchange; elution against a standard curve (between 44 kDa and 17 kDa); also with Ca2+ or EGTA/EDTA without effect. (Size exclusion chromatography separates by hydrodynamic size, large species first.)
The target of assay [4] is C133Q ΔLTRIN (Aedes aegypti). In words: dynamic and static light scattering; DynaPro Nanostar; ΔLTRIN at 1 mg/mL to 20 mg/mL; also with Ca2+ or EGTA without effect.
Assay [5] concerns the target C133Q ΔLTRIN (Aedes aegypti). In words: SEC; Superdex 75 after Ni-NTA and ion exchange; elution against a standard curve (between 44 kDa and 17 kDa); also with Ca2+ or EGTA/EDTA without effect.

As a reminder, the stoichiometry N is a count of units in the complex or per binding partner. In the case of “ΔLTRIN, truncated C-terminal LTRIN (lymphotoxin β receptor inhibitor), residues 86-210 (domain or fragment)”, the stoichiometry N in assay [1], in assay [2] and in assay [3] was 2 each time.
With C133Q ΔLTRIN (domain or fragment), the stoichiometry N in assay [4] and in assay [5] was 2 each time.

Values taken from paper PMC10813304.
